Experimental data from patent US20260242432A1 (NUVIG THERAPEUTICS, published 2026).

How the values were obtained:
mouse FcRn [1] = target: T1, mouse FcRn (mouse, UniProt Q61559 22-297; P01887 21-119, limits assumed); test: SPR, Fc loaded on anti-human Fc biosensors
T1 construct: also called mFcRn; murine FcRn
T1 sequence (looked up) 1: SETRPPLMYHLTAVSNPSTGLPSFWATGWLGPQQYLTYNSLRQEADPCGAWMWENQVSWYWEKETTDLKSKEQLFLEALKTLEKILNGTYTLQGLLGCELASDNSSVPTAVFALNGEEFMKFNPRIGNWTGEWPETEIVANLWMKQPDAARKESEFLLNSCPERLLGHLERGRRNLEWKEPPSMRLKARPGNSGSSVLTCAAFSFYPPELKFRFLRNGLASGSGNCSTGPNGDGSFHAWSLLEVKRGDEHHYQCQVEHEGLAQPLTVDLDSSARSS
T1 sequence (looked up) 2: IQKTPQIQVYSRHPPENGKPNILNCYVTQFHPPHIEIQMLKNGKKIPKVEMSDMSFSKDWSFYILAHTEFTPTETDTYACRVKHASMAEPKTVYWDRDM
Method: (§1) Dissociation constants (KDs) are plotted as μM (solid bars) and association constants (KAs) are plotted as Ms⁻¹ (hatched bars). (FIG. 9E and FIG. 9F) Female WT C57BL/6 (FIG. 9E) and humanized homozygous FcRn (Tg32) mice (FIG. 9F) were administered one dose of 50 mg/kg or 100 mg/kg of F241A/B4ST6 Fc or 10 mg/kg of Fc^Abdeg and serum mouse IgG was measured via ELISA out to day 7 post-dose. (FIG. 9G) SIGN-R1^{-/-} and hDC-SIGN⁺ murine bone marrow-derived macrophages (BMDMs) had their Fcγ receptors blocked then were incubated with PBS, F241A/B4ST6 Fc, or Fc^Abdeg and binding was detected by FACS using an anti-human IgG Fc antibody. […] (FIG. 911-9J) Female WT C57BL/6 mice (n=5 per group) and female and male SIGN-R1^{-/-} mice (n=5 per group) were administered arthritogenic K/BxN serum alongside PBS, 1 g/kg IVIG, 50 mg/kg F241A/B4ST6 Fc, or 10 mg/kg Fc^Abdeg in a preventative manner, and joint swelling was clinically scored for 10 days. […] Statistical significance was assessed using an ordinary one-way ANOVA with Tukey's multiple comparisons.
(§2) At the outset, the interactions between WT Fc, F241A/B4ST6 Fc, and Fc^Abdeg were tested with mouse and human FcRn using surface plasmon resonance (SPR). […] C57BL/6 and hFcRn (Tg32) mice were given a single intravenous injection of F241A/B4ST6 Fc or Fc^Abdeg and, following dosing, serum mIgG was determined via ELISA.

human FcRn [2] = target: T2, human FcRn (human, UniProt P55899 24-297; P61769 21-119, limits assumed); test: SPR, Fc loaded on anti-human Fc biosensors
T2 construct: also called hFcRn
Method: as §1, §2

mouse FcRn [3] = target: T1, mouse FcRn; test: not stated in the sentence (apparently the SPR of Example 7)
mouse FcRn [4] = target: T1, mouse FcRn; test: SPR; Fc loaded on anti-human Fc biosensors, mouse FcRn in solution
Method: as §1, §2

human FcRn [5] = target: T2, human FcRn; test: SPR; Fc loaded on anti-human Fc biosensors, human FcRn in solution
Method: as §1, §2

[6] = target: T3, human Dendritic Cell-Specific ICAM-3-Grabbing Non-Integrin (DC-SIGN) on hDC-SIGN^+/SIGN-R1^-/- murine bone … (human, UniProt Q9NNX6 1-404); test: flow cytometry on hDC-SIGN^+/SIGN-R1^-/- BMDMs, Fc gamma receptors blocked, detection with anti-hIgG Fc antibody
T3 construct: whole, on cells; also called hCD209
T3 sequence (looked up): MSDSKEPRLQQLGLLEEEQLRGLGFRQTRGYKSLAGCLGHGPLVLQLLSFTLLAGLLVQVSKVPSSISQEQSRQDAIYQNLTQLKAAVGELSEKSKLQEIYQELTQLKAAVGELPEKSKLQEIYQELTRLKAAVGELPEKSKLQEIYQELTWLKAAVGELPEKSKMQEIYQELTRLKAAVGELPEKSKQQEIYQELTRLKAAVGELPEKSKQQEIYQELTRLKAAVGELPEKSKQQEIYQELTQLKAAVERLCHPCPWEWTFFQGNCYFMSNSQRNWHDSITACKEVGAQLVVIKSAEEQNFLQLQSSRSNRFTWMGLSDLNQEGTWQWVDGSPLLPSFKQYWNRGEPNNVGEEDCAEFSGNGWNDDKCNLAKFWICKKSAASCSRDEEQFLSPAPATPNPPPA
Method: Both IVIG and sialylated IgG Fc require the murine C-type lectin Specific ICAM3-Grabbing Non-Integrin Related-1 (SIGN-R1) to mediate anti-inflammatory activity in vivo. This requirement can be circumvented by introduction of SIGN-R1 human orthologue, Dendritic Cell-Specific ICAM-3-Grabbing Non-Integrin (DC-SIGN). Therefore, the ability of both F241A/B4ST6 Fc and Fc^Abdeg to bind DC-SIGN was examined via a cell-binding assay. […] Cells were cultured overnight in high glucose DMEM medium supplemented with 1× antibiotic-antimycotic and 1×FBS at 37° C. and 5% CO₂. The next day, supernatants were discarded and cells were detached with enzyme-free dissociation buffer. Suspended cells were collected and centrifuged for 10 minutes at 400 rpm. The pellet was resuspended and washed in binding buffer (1×TBS, […], 2.5% FBS and 0.05% sodium azide). Fc receptors were blocked by adding anti-mouse CD16/32 antibody clone 93. After blocking, cells were washed in binding buffer, after which 100 μg/mL of Fc^Abdeg and F241A/B4ST6 Fc were added to the cells, which were then incubated for 1 hour on ice. […] BMDMs were analyzed by flow cytometry to detect surface-bound IgG. No bound IgG were detected on the SIGN-R1^{-/-} BMDMs incubated with F241A/B4ST6 Fc or Fc^Abdeg (FIG. 9G). However, IgG was detected on hDC-SIGN⁺/SIGN-R1^{-/-} BMDMs treated with F241A/B4ST6 Fc, but not with Fc^Abdeg (FIG. 9G).

fold lower KD than F241A/B4ST6 Fc (mouse FcRn [1]): 267 fold | fold lower KD than F241A/B4ST6 Fc (human FcRn [2]): 39 fold | fold enhanced affinity compared to human FcRn (mouse FcRn [3]): 10 fold | Kd (mouse FcRn [4]): 0.27 nM | Kd (human FcRn [5]): 5.2 nM | binding result [6]: no binding (tested: 100 µg/mL)
B1: Fc^Abdeg polypeptide (efgartigimod), human IgG1 Fc with M252Y/S254T/T256E/H433K/N434F (other)
chain: DKTHTCPPCPAPELLGGPSVFLFPPKPKDTLYITREPEVTCVVVDVSHEDPEVKFNWYVDGVEVHNAKTKPREEQYNSTYRVVSVLTVLHQDWLNGKEYKCKVSNKALPAPIEKTISKAKGQPREPQVYTLPPSRDELTKNQVSLTCLVKGFYPSDIAVEWESNGQPENNYKTTPPVLDSDGSFFLYSKLTVDKSRWQQGNVFSCSVMHEALKFHYTQKSLSLSPG
notes: also called EFG Fc
